The record followed here is patent EP4269437A1.

Numbering of substitutions follows the chain as printed. Values joined by “and” are separate entries in the source; they are usually repeats but may differ in a detail not shown here. Equal entries are not always repeated.

B1: NB215 (VHH)
VHH: EVQVVESGGGLVQAGDSLRLSCAASGGTISGYEMGWFRQAPGKEREFVAGISRNGRSTGYSDSAKDRFTISRDNAKNTVYLQMNSLKPEDTAVYYCAAGLKADYGDSYVDTSTRNYNYWGQGTQVTVSS
B2: NB197 (VHH)
VHH: QVQLQESGGGLVQPGGSLRLSCAASGFTLDDHSIGWFRQAPGKEREPVSCISTSDGRTYYEDSVKGRFTISRDKAKNTVYLQMDSLKPEDTAVYYCTTDVACYSDYDPSFRFWGQGTQVTVSS
B3: NB205 (VHH)
VHH: EVQLVESGGGLVQVGDSLRLSCAASGRTFSSVPMGWFRQAPGNQREFVAAISKSGGSAGYADSVKDRSTISRDNAKNTIYLQMNSLKPEDTAVYYCAASSFDFCSTHGCYDYWGQGTQVTISS
B4: NB216 (VHH)
VHH: B3 VHH with E1Q, Q13R, V14A, R19T, F101Y
B5: NB218 (VHH)
VHH: QLQLVESGGGLVQAGDSLRLSCAASGRTFSSIAMGWFRQAPGKEREFVAAISRSGGSAGYADSVKDRSTIVRDNTKNTVYLQMNSLKPEDTAVYFCAASDYDFCSTHGCYDYWGQGTQVTISS
B6: NB194 (Fc fusion, not shown: a dimerising Fc or GST)
VHH: QVQLVETGGGLVRAGGSLRLSCTASGRPFSIYDMGWFRQAPDKERESVAVINLSRGDTYYADSVKGRFTISLDSAKNTVYLQMNSLKPEDTAVYSCGVDRRQYGLGIPPLADHWGQGTQVTVSS
B7: NB220 (VHH)
VHH: QVQLQESGGGLLQAGDSLRLSCIVSGRTFSSYAIGWFRQAPGKEREFVAGINWSGRSQYYSESVKDRFTVSIDNAKNTVYLQMNSLKPEDTAVYYCAAERHLGVPTVRDDEYDDWGQGTQVTVSS
B8: NB211 (VHH)
VHH: EVQVVETGGGLAQAGGSLRLSCAASGRTFSGYTVGWYRQSPGKEREFVAAISYSGGSTDYADSVKGRFTISRDNANNTVYLQMGSLKAEDTAVYYCNRVIRGTRDPSIYYVMDYWGKGTLVTVSS
B9: NB202 (VHH)
VHH: EVQVVESGGGLVQAGGSLRLSCTASGDTRLASAMGWYRQAPGKERELVAAITNSGLTYYADSVEGRFTISRDSAKNTVYLQMNSLKPEDTAVYYCNAGAPPPGGLGYDESDYWGQGTQVTVSS
B10: NB209 (VHH)
VHH: B9 VHH with A14T, T23A, R29A, A31F, M34V, I51L, S54T, L56I, S70F, S73N
B11: NB182 (Fc fusion, not shown: a dimerising Fc or GST)
VHH: QVQLVESGGGLVQAGGSLRLSCAASGDTSFISAAGWYRQAPGKERELVAAITNTGITYYPDSVKGRFTISRDNAKNTVYLQMNNLKPEDTAVYYCNAGAPPPGGLGYDESDYWGQGTQVTVSS
B12: NB200 (VHH)
VHH: QVQLVESGGGLVQAGGSLTLSCAASGRTFNSYAMGWFRQAPGKEREFVAAISQNGGSQGYAEAVKDRFTISRDNTNKVVALQMNSLKPEDTAAYYCAADGDASDRSYAPPRDYEYEYWGQGTQVTVSS

cynomolgus monkey PD-1 protein (cynomolgus monkey), sequence (B0LAJ3 entry or part of it limits assumed): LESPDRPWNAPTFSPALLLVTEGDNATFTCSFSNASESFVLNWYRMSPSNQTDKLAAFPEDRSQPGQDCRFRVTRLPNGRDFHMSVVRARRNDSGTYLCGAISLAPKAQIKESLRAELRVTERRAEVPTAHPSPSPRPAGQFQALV
PD-1 (CD28 family protein, ACROBiosystems), sequence (Q15116 25-167 limits assumed): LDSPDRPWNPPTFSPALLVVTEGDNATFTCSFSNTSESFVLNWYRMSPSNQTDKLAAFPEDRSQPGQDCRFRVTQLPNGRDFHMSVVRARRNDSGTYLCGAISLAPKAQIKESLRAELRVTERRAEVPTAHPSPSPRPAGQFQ

One assay has as its target PD-1 (UniProt Q15116). Briefly: blocking ELISA, clone supernatant, competitor PD-L1.hFc detected with anti-human Fc HRP.
Target sequence in this assay (Q15116 25-170 limits assumed): as the sequence (B0LAJ3 entry or part of it limits assumed) above, with E2D, A10P, L19V, A35T, R75Q, A144T counted along it
B1: the OD450, PD-L1 binding with PD-1 was determined as 1.27 OD450.

Molecule B2 yielded an OD450, PD-L1 binding with PD-1 of 2.27 OD450.

With B3, the OD450, PD-L1 binding with PD-1 was determined as 2.2 OD450.

Consider B4, for which the OD450, PD-L1 binding with PD-1 came to 2.45 OD450.

B5 came in with an OD450, PD-L1 binding with PD-1 of 2.32 OD450.

Molecule B6 gave an OD450, PD-L1 binding with PD-1 of 0.152 OD450.

Consider B7, for which the OD450, PD-L1 binding with PD-1 worked out at 2.21 OD450.

Regarding B8, the OD450, PD-L1 binding with PD-1 worked out at 2.21 OD450.

Take B9: the OD450, PD-L1 binding with PD-1 came to 0.723 OD450.

In the case of B10, the OD450, PD-L1 binding with PD-1 came out at 2.04 OD450.

Molecule B11 had an OD450, PD-L1 binding with PD-1 of 0.213 OD450.

Take B12: the OD450, PD-L1 binding with PD-1 stood at 2.48 OD450.

For a further assay, the target named is PD-1 (UniProt Q15116). Briefly: ELISA, TG1 supernatant on coated PD-1, anti-c-myc HRP.
Target sequence in this assay (Q15116 25-170 limits assumed): as the sequence (B0LAJ3 entry or part of it limits assumed) above, with E2D, A10P, L19V, A35T, R75Q, A144T counted along it
Turning to B1, the OD450, clone binding with PD-1 worked out at 3.29 OD450.

The molecule B2 came in with an OD450, clone binding with PD-1 of 2.66 OD450.

B3 showed an OD450, clone binding with PD-1 of 2.25 OD450.

In turn, B4 returned an OD450, clone binding with PD-1 of 2.75 OD450.

On to B5, for which the OD450, clone binding with PD-1 was determined as 2.62 OD450.

In turn, B6 returned an OD450, clone binding with PD-1 of 2.83 OD450.

Consider B7, for which the OD450, clone binding with PD-1 was found to be 2.38 OD450.

Regarding B8, the OD450, clone binding with PD-1 stood at 2.71 OD450.

Molecule B9 gave an OD450, clone binding with PD-1 of 3.04 OD450.

In turn, B10 registered an OD450, clone binding with PD-1 of 3.22 OD450.

B11 came in with an OD450, clone binding with PD-1 of 3.08 OD450.

B12 had an OD450, clone binding with PD-1 of 2.31 OD450.

For a further assay, the target named is PD-1 (UniProt Q15116). Briefly: ELISA on coated protein, anti-human Fc HRP.
Target sequence in this assay (Q15116 25-167 limits assumed): as the sequence (Q15116 25-167 limits assumed) above
Turning to B6, the ELISA (OD) is 2.22 OD and 1.95 OD and 2.11 OD.

In the case of B11, the ELISA (OD) is 2.17 OD and 2.13 OD and 2.1 OD.

A further assay concerns the target cynomolgus monkey PD-1 protein (cynomolgus monkey) (UniProt B0LAJ3). Description: ELISA on coated protein, anti-human Fc HRP.
Regarding B6, the ELISA (OD) is 2.23 OD and 2.17 OD and 2.1 OD.

As to B11, the ELISA (OD) was 2.07 OD and 2.08 OD and 1.95 OD.

A further assay addresses PD-1 (CD28 family protein, ACROBiosystems) (UniProt Q15116). Briefly: ELISA on coated protein, anti-human Fc HRP.
Turning to B6, the ELISA (OD) was 2.03 OD and 1.96 OD and 2.27 OD.

On to B11, for which the ELISA (OD) is 2.06 OD and 2.09 OD and 2.29 OD.
